*1 amine or outer side, *2 acyl side, *3 side chain or, on linkers, in order; H or OH if unused. Side-chain parts run from the residue outwards. The star is where a group is joined. C18 diacid = O=C(O)CCCCCCCCCCCCCCCCC(=O)*; γGlu = O=C(O)[C@H](CCC(=O)[*:2])N[*:1]; Isovaleryl = CC(C)CC(=O)*; Ahx = NCCCCCC(=O)O
T1: human NPY2 receptor (human, UniProt P49146 1-381)
T1 construct: whole, on cells; also called hNPY2-R; hNPY2R
T1 sequence (looked up): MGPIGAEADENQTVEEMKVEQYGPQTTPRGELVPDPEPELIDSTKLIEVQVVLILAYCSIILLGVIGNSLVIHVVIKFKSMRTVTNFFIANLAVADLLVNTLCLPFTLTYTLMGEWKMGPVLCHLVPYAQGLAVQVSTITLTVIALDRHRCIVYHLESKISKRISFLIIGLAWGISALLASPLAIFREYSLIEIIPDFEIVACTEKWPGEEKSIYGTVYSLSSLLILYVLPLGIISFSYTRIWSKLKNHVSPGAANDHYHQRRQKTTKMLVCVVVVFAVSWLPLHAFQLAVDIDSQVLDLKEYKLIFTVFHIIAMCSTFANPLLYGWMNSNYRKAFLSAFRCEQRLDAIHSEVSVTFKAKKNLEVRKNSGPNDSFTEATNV


Biological target: T1, human NPY2 receptor
Assay: RLB: displacement of 125I-PYY(1-36) from hNPY2R membranes

Row | Ki [nM] | Binder
1 | 6.91 | Isovaleryl-APEK([Ahx-γGlu-C18 diacid])PEEDATSEELQRYYVSLRHYYNWLTRQRY-NH2 (SMILES CC(C)CC(=O)N[C@@H](C)C(=O)N1CCC[C@H]1C(=O)N[C@@H](CCC(=O)O)C(=O)N[C@@H](CCCCNC(=O)CCCCCNC(=O)CC[C@H](NC(=O)CCCCCCCCCCCCCCCCC(=O)O)C(=O)O)C(=O)N1CCC[C@H]1C(=O)N[C@@H](CCC(=O)O)C(=O)N[C@@H](CCC(=O)O)C(=O)N[C@@H](CC(=O)O)C(=O)N[C@@H](C)C(=O)N[C@H](C(=O)N[C@@H](CO)C(=O)N[C@@H](CCC(=O)O)C(=O)N[C@@H](CCC(=O)O)C(=O)N[C@@H](CC(C)C)C(=O)N[C@@H](CCC(N)=O)C(=O)N[C@@H](CCCNC(=N)N)C(=O)N[C@@H](Cc1ccc(O)cc1)C(=O)N[C@@H](Cc1ccc(O)cc1)C(=O)N[C@H](C(=O)N[C@@H](CO)C(=O)N[C@@H](CC(C)C)C(=O)N[C@@H](CCCNC(=N)N)C(=O)N[C@@H](Cc1c[nH]cn1)C(=O)N[C@@H](Cc1ccc(O)cc1)C(=O)N[C@@H](Cc1ccc(O)cc1)C(=O)N[C@@H](CC(N)=O)C(=O)N[C@@H](Cc1c[nH]c2ccccc12)C(=O)N[C@@H](CC(C)C)C(=O)N[C@H](C(=O)N[C@@H](CCCNC(=N)N)C(=O)N[C@@H](CCC(N)=O)C(=O)N[C@@H](CCCNC(=N)N)C(=O)N[C@@H](Cc1ccc(O)cc1)C(N)=O)[C@@H](C)O)C(C)C)[C@@H](C)O) [Compound 83]
2 | 22.4 | Isovaleryl-APEK([Ahx-γGlu-C18 diacid])PEEDATPEELQRYYVPLRHYYNWLTRQRY-NH2 (SMILES CC(C)CC(=O)N[C@@H](C)C(=O)N1CCC[C@H]1C(=O)N[C@@H](CCC(=O)O)C(=O)N[C@@H](CCCCNC(=O)CCCCCNC(=O)CC[C@H](NC(=O)CCCCCCCCCCCCCCCCC(=O)O)C(=O)O)C(=O)N1CCC[C@H]1C(=O)N[C@@H](CCC(=O)O)C(=O)N[C@@H](CCC(=O)O)C(=O)N[C@@H](CC(=O)O)C(=O)N[C@@H](C)C(=O)N[C@H](C(=O)N1CCC[C@H]1C(=O)N[C@@H](CCC(=O)O)C(=O)N[C@@H](CCC(=O)O)C(=O)N[C@@H](CC(C)C)C(=O)N[C@@H](CCC(N)=O)C(=O)N[C@@H](CCCNC(=N)N)C(=O)N[C@@H](Cc1ccc(O)cc1)C(=O)N[C@@H](Cc1ccc(O)cc1)C(=O)N[C@H](C(=O)N1CCC[C@H]1C(=O)N[C@@H](CC(C)C)C(=O)N[C@@H](CCCNC(=N)N)C(=O)N[C@@H](Cc1c[nH]cn1)C(=O)N[C@@H](Cc1ccc(O)cc1)C(=O)N[C@@H](Cc1ccc(O)cc1)C(=O)N[C@@H](CC(N)=O)C(=O)N[C@@H](Cc1c[nH]c2ccccc12)C(=O)N[C@@H](CC(C)C)C(=O)N[C@H](C(=O)N[C@@H](CCCNC(=N)N)C(=O)N[C@@H](CCC(N)=O)C(=O)N[C@@H](CCCNC(=N)N)C(=O)N[C@@H](Cc1ccc(O)cc1)C(N)=O)[C@@H](C)O)C(C)C)[C@@H](C)O) [Compound 87]
3 | 4.33 | Isovaleryl-APEK([Ahx-γGlu-C18 diacid])PEEDATPEEIQRYYASLRHYYNWLTRQRY-NH2 (SMILES CC[C@H](C)[C@H](NC(=O)[C@H](CCC(=O)O)NC(=O)[C@H](CCC(=O)O)NC(=O)[C@@H]1CCCN1C(=O)[C@@H](NC(=O)[C@H](C)NC(=O)[C@H](CC(=O)O)NC(=O)[C@H](CCC(=O)O)NC(=O)[C@H](CCC(=O)O)NC(=O)[C@@H]1CCCN1C(=O)[C@H](CCCCNC(=O)CCCCCNC(=O)CC[C@H](NC(=O)CCCCCCCCCCCCCCCCC(=O)O)C(=O)O)NC(=O)[C@H](CCC(=O)O)NC(=O)[C@@H]1CCCN1C(=O)[C@H](C)NC(=O)CC(C)C)[C@@H](C)O)C(=O)N[C@@H](CCC(N)=O)C(=O)N[C@@H](CCCNC(=N)N)C(=O)N[C@@H](Cc1ccc(O)cc1)C(=O)N[C@@H](Cc1ccc(O)cc1)C(=O)N[C@@H](C)C(=O)N[C@@H](CO)C(=O)N[C@@H](CC(C)C)C(=O)N[C@@H](CCCNC(=N)N)C(=O)N[C@@H](Cc1c[nH]cn1)C(=O)N[C@@H](Cc1ccc(O)cc1)C(=O)N[C@@H](Cc1ccc(O)cc1)C(=O)N[C@@H](CC(N)=O)C(=O)N[C@@H](Cc1c[nH]c2ccccc12)C(=O)N[C@@H](CC(C)C)C(=O)N[C@H](C(=O)N[C@@H](CCCNC(=N)N)C(=O)N[C@@H](CCC(N)=O)C(=O)N[C@@H](CCCNC(=N)N)C(=O)N[C@@H](Cc1ccc(O)cc1)C(N)=O)[C@@H](C)O) [Compound 86]
4 | 8.71 | Isovaleryl-APEK([Ahx-γGlu-C18 diacid])PEEDATPEELQRYYVVLRHYYNWLTRQRY-NH2 (SMILES CC(C)CC(=O)N[C@@H](C)C(=O)N1CCC[C@H]1C(=O)N[C@@H](CCC(=O)O)C(=O)N[C@@H](CCCCNC(=O)CCCCCNC(=O)CC[C@H](NC(=O)CCCCCCCCCCCCCCCCC(=O)O)C(=O)O)C(=O)N1CCC[C@H]1C(=O)N[C@@H](CCC(=O)O)C(=O)N[C@@H](CCC(=O)O)C(=O)N[C@@H](CC(=O)O)C(=O)N[C@@H](C)C(=O)N[C@H](C(=O)N1CCC[C@H]1C(=O)N[C@@H](CCC(=O)O)C(=O)N[C@@H](CCC(=O)O)C(=O)N[C@@H](CC(C)C)C(=O)N[C@@H](CCC(N)=O)C(=O)N[C@@H](CCCNC(=N)N)C(=O)N[C@@H](Cc1ccc(O)cc1)C(=O)N[C@@H](Cc1ccc(O)cc1)C(=O)N[C@H](C(=O)N[C@H](C(=O)N[C@@H](CC(C)C)C(=O)N[C@@H](CCCNC(=N)N)C(=O)N[C@@H](Cc1c[nH]cn1)C(=O)N[C@@H](Cc1ccc(O)cc1)C(=O)N[C@@H](Cc1ccc(O)cc1)C(=O)N[C@@H](CC(N)=O)C(=O)N[C@@H](Cc1c[nH]c2ccccc12)C(=O)N[C@@H](CC(C)C)C(=O)N[C@H](C(=O)N[C@@H](CCCNC(=N)N)C(=O)N[C@@H](CCC(N)=O)C(=O)N[C@@H](CCCNC(=N)N)C(=O)N[C@@H](Cc1ccc(O)cc1)C(N)=O)[C@@H](C)O)C(C)C)C(C)C)[C@@H](C)O) [Compound 90]
5 | 16.3 | Isovaleryl-APEK([Ahx-γGlu-C18 diacid])PEEDATPEELQRQYVSLRHYYNWLTRQRY-NH2 (SMILES CC(C)CC(=O)N[C@@H](C)C(=O)N1CCC[C@H]1C(=O)N[C@@H](CCC(=O)O)C(=O)N[C@@H](CCCCNC(=O)CCCCCNC(=O)CC[C@H](NC(=O)CCCCCCCCCCCCCCCCC(=O)O)C(=O)O)C(=O)N1CCC[C@H]1C(=O)N[C@@H](CCC(=O)O)C(=O)N[C@@H](CCC(=O)O)C(=O)N[C@@H](CC(=O)O)C(=O)N[C@@H](C)C(=O)N[C@H](C(=O)N1CCC[C@H]1C(=O)N[C@@H](CCC(=O)O)C(=O)N[C@@H](CCC(=O)O)C(=O)N[C@@H](CC(C)C)C(=O)N[C@@H](CCC(N)=O)C(=O)N[C@@H](CCCNC(=N)N)C(=O)N[C@@H](CCC(N)=O)C(=O)N[C@@H](Cc1ccc(O)cc1)C(=O)N[C@H](C(=O)N[C@@H](CO)C(=O)N[C@@H](CC(C)C)C(=O)N[C@@H](CCCNC(=N)N)C(=O)N[C@@H](Cc1c[nH]cn1)C(=O)N[C@@H](Cc1ccc(O)cc1)C(=O)N[C@@H](Cc1ccc(O)cc1)C(=O)N[C@@H](CC(N)=O)C(=O)N[C@@H](Cc1c[nH]c2ccccc12)C(=O)N[C@@H](CC(C)C)C(=O)N[C@H](C(=O)N[C@@H](CCCNC(=N)N)C(=O)N[C@@H](CCC(N)=O)C(=O)N[C@@H](CCCNC(=N)N)C(=O)N[C@@H](Cc1ccc(O)cc1)C(N)=O)[C@@H](C)O)C(C)C)[C@@H](C)O) [Compound 88]
6 | 1.61 | Isovaleryl-APAK([Ahx-γGlu-C18 diacid])PEEDASPEETQRYYVSLRHYYNWLTRQRY-NH2 (SMILES CC(C)CC(=O)N[C@@H](C)C(=O)N1CCC[C@H]1C(=O)N[C@@H](C)C(=O)N[C@@H](CCCCNC(=O)CCCCCNC(=O)CC[C@H](NC(=O)CCCCCCCCCCCCCCCCC(=O)O)C(=O)O)C(=O)N1CCC[C@H]1C(=O)N[C@@H](CCC(=O)O)C(=O)N[C@@H](CCC(=O)O)C(=O)N[C@@H](CC(=O)O)C(=O)N[C@@H](C)C(=O)N[C@@H](CO)C(=O)N1CCC[C@H]1C(=O)N[C@@H](CCC(=O)O)C(=O)N[C@@H](CCC(=O)O)C(=O)N[C@H](C(=O)N[C@@H](CCC(N)=O)C(=O)N[C@@H](CCCNC(=N)N)C(=O)N[C@@H](Cc1ccc(O)cc1)C(=O)N[C@@H](Cc1ccc(O)cc1)C(=O)N[C@H](C(=O)N[C@@H](CO)C(=O)N[C@@H](CC(C)C)C(=O)N[C@@H](CCCNC(=N)N)C(=O)N[C@@H](Cc1c[nH]cn1)C(=O)N[C@@H](Cc1ccc(O)cc1)C(=O)N[C@@H](Cc1ccc(O)cc1)C(=O)N[C@@H](CC(N)=O)C(=O)N[C@@H](Cc1c[nH]c2ccccc12)C(=O)N[C@@H](CC(C)C)C(=O)N[C@H](C(=O)N[C@@H](CCCNC(=N)N)C(=O)N[C@@H](CCC(N)=O)C(=O)N[C@@H](CCCNC(=N)N)C(=O)N[C@@H](Cc1ccc(O)cc1)C(N)=O)[C@@H](C)O)C(C)C)[C@@H](C)O) [Compound 85]
